Legend:
[1] = biological target: T1, BMP10 growth factor (GF)-domain from Pro:BMP10 made in HEK EBNA cells, O95393; test: ELISA (prodomain displacement); settings: chain shown with the change; BMPRII ECD at 125x excess over Pro:BMP10; lower reading = more prodomain displaced; parent: est. 0.42; read off a plot
T1 chain: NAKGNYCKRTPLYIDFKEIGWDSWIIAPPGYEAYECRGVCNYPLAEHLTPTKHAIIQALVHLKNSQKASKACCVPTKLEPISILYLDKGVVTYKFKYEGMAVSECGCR

[2] = biological target: T2, Recombinant human BMP10 growth factor (GF)-domain (R&D Systems), O95393; test: SPR (Biacore); settings: chain shown with the change, BMP10 immobilised on a CM5 Biacore chip
T2 chain: T1 chain

[3] = biological target: T1, BMP10 growth factor (GF)-domain from …; test: native PAGE prodomain displacement (densitometry); settings: chain shown with the change, lower ratio = more prodomain displaced, read off a plot

other: OD reading, normalized to no BMPRII control [1]: 0.62
Kd ([2]; parent: 1.19E-06 M): 1.17 µM
koff ([2]; parent: 1.61E-01 s-1): 0.0583 s⁻¹
other: Pro:BMP10/prodomain ratio, normalized to no BMPRII control ([3]; BMPRII ECD at 2-fold excess (2x) over Pro:BMP10, parent: est. 0.59): 0.94
other: Pro:BMP10/prodomain ratio, normalized to no BMPRII control ([3]; BMPRII ECD at 5-fold excess (5x) over Pro:BMP10, parent: est. 0.46): 0.74
B1: BMPRII extracellular domain (ECD), wild type, Q13873-1 ΔGDP (del of Gly, Asp and Pro in the A-loop) (protein)
chain: SQNQERLCAFKDPYQQDLGIGESRISHENGTILCSKGSTCYGLWEKSKGDINLVKQGCWSHIQECHYEECVVTTTPPSIQNGTYRFCCCSTDLCNVNFTENFPPPDTTPLSPPHSFNRDET

— paper PMC9064986
